This assay has as its target recombinant TdfH (Neisseria gonorrhoeae TonB-dependent transporter, NGO0952) (Neisseria gonorrhoeae). Put plainly: ITC; Nano ITC, 25°C, 1x PBS with 0.05% DDM; TdfH (300 μl, 20 μM) in the cell, CP sample (200 μM) in 20 injections of 2.5 μl; fitted with NanoAnalyze to a two-state (multisite) model, TKO to a single-site model. (In general: ITC needs no label: the signal is the heat of the interaction.)

We go through one molecule from publication PMC7251212.

B1: human calprotectin (heterodimer of S100A8 and S100A9) (complex)
chain 1: MLTELEKALNSIIDVYHKYSLIKGNFHAVYRDDLKKLLETECPQYIRKKGADVWFKELDINTDGAVNFQEFLILVIKMGVAAHKKSHEESHKE
chain 2: KMSQLERNIETIINTFHQYSVKLGHPDTLNQGEFKELVRKDLQNFLKKENKNEKVIEHIMEDLDTNADKQLSFEEFIMLMARLTWASHEKMHEGDEGPGHHHKPGLGEGTP
For B1, the KD, high-affinity interaction (two-state model) is 0.004 µM and the KD, low-affinity interaction (two-state model) is 35 µM.
